This passage reports Kd results from patent publication US20170088600A1 (published 2017).

What all share (assay): SPR
The target in test [1] is T1, TRAIL-R2-Fc M152A/R154A/K155A (human, UniProt O14763 58-184).
T1 chain: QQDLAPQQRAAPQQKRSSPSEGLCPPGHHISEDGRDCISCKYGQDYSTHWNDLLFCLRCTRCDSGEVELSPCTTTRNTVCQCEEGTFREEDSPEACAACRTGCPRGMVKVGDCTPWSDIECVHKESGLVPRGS

For test [2], the target named is UL141.
In test [3] the target is UL141. This is another data set of the same source.
Test [4] has as its target UL141. The source holds these as a separate data set.
Test [5] concerns the target UL141. This is another data set of the same source.

Like-named read-outs stand apart in the source and are kept apart here.

B1: TRAIL (TNFSF10) ectodomain (ligand)
chain: TNELKQMQDKYSKSGIACFLKEDDSYWDPNDEESMNSPCWQVKWQLRQLVRKMILRTSEETISTVQEKQQNISPLVRERGPQRVAAHITGTRGRSNTLSSPNSKNEKALGRKINSWESSRSGHSFLSNLHLRNGELVIHEKGFYYIYSQTYFRFQEEIKENTKNDKQMVQYIYKYTSYPDPILLMKSARNSCWSKDAEYGLYSIYQGGIFELKENDRIFVSVTNEHLIDMDHEASFFGAFLVG
As to B1, the Kd in test [1] came out at 7 nM.

B2: TRAIL-R2-Fc F112A (Fc fusion)
chain: QQDLAPQQRAAPQQKRSSPSEGLCPPGHHISEDGRDCISCKYGQDYSTHWNDLLACLRCTRCDSGEVELSPCTTTRNTVCQCEEGTFREEDSPEMCRKCRTGCPRGMVKVGDCTPWSDIECVHKESGLVPRGS
Turning to B2, the Kd in the test with UL141 [2] came to 630 nM.

B3: TRAIL-R2-Fc (human TRAIL-R2 aa 58-184, thrombin site, human IgG1 Fc), wild type (Fc fusion)
chain: QQDLAPQQRAAPQQKRSSPSEGLCPPGHHISEDGRDCISCKYGQDYSTHWNDLLFCLRCTRCDSGEVELSPCTTTRNTVCQCEEGTFREEDSPEMCRKCRTGCPRGMVKVGDCTPWSDIECVHKESGLVPRGS
As to B3, the Kd in the test with UL141 [3] was determined as 5.96 nM; in the test with UL141 [2] it was 6 nM.

B4: TRAIL-R2-Fc K155A (Fc fusion)
chain: QQDLAPQQRAAPQQKRSSPSEGLCPPGHHISEDGRDCISCKYGQDYSTHWNDLLFCLRCTRCDSGEVELSPCTTTRNTVCQCEEGTFREEDSPEMCRACRTGCPRGMVKVGDCTPWSDIECVHKESGLVPRGS
Molecule B4 yielded a Kd in the test with UL141 [4] of 8 nM.

B5: TRAIL-R2-Fc M152A (Fc fusion)
chain: QQDLAPQQRAAPQQKRSSPSEGLCPPGHHISEDGRDCISCKYGQDYSTHWNDLLFCLRCTRCDSGEVELSPCTTTRNTVCQCEEGTFREEDSPEACRKCRTGCPRGMVKVGDCTPWSDIECVHKESGLVPRGS
The molecule B5 came in with a Kd with UL141 [4] of 7 nM.

B6: TRAIL-R2-Fc R154A (Fc fusion)
chain: QQDLAPQQRAAPQQKRSSPSEGLCPPGHHISEDGRDCISCKYGQDYSTHWNDLLFCLRCTRCDSGEVELSPCTTTRNTVCQCEEGTFREEDSPEMCAKCRTGCPRGMVKVGDCTPWSDIECVHKESGLVPRGS
As for B6, the Kd in the test with UL141 [4] amounted to 6 nM.

B7: TRAIL-R2-Fc E78A/D109A (Fc fusion)
chain: QQDLAPQQRAAPQQKRSSPSAGLCPPGHHISEDGRDCISCKYGQDYSTHWNALLFCLRCTRCDSGEVELSPCTTTRNTVCQCEEGTFREEDSPEMCRKCRTGCPRGMVKVGDCTPWSDIECVHKESGLVPRGS
On to B7, for which binding with UL141 [5] was characterised by a dissociation constant (Kd) of 60 nM.

B8: TRAIL-R2-Fc V167A (Fc fusion)
chain: QQDLAPQQRAAPQQKRSSPSEGLCPPGHHISEDGRDCISCKYGQDYSTHWNDLLFCLRCTRCDSGEVELSPCTTTRNTVCQCEEGTFREEDSPEMCRKCRTGCPRGMVKAGDCTPWSDIECVHKESGLVPRGS
B8 registered a Kd in the test with UL141 [2] of 15 nM.

B9: TRAIL-R2-Fc L110A/L114A (Fc fusion)
chain: QQDLAPQQRAAPQQKRSSPSEGLCPPGHHISEDGRDCISCKYGQDYSTHWNDALFCARCTRCDSGEVELSPCTTTRNTVCQCEEGTFREEDSPEMCRKCRTGCPRGMVKVGDCTPWSDIECVHKESGLVPRGS
In turn, B9 registered a Kd with UL141 [2] of 43 nM.

B10: TRAIL-R2-Fc P150A (Fc fusion)
chain: QQDLAPQQRAAPQQKRSSPSEGLCPPGHHISEDGRDCISCKYGQDYSTHWNDLLFCLRCTRCDSGEVELSPCTTTRNTVCQCEEGTFREEDSAEMCRKCRTGCPRGMVKVGDCTPWSDIECVHKESGLVPRGS
On to B10, for which, in the test with UL141 [2], the equilibrium dissociation constant (Kd) turned out to be 8 nM.

B11: TRAIL-R2-Fc D148A (Fc fusion)
chain: QQDLAPQQRAAPQQKRSSPSEGLCPPGHHISEDGRDCISCKYGQDYSTHWNDLLFCLRCTRCDSGEVELSPCTTTRNTVCQCEEGTFREEASPEMCRKCRTGCPRGMVKVGDCTPWSDIECVHKESGLVPRGS
On to B11, for which, in the test with UL141 [2], the Kd amounted to 55 nM.
